According to article PMC5041490 (Nucleic Acids Research, 2016):

Tests used:
GST-L3 = GST-L3 (UniProt P39023 1-403); experiment: pull-down
GST-L4 = GST-L4 (UniProt P36578 1-427); experiment: pull-down

binding result (GST-L3)	binding result (GST-L4)	Binder
binds	binds	His-G5(1–739) W14A (domain or fragment) MGQEPRTLPPSPNAYCARCSDAVPGGLFGFAARTSVFLVRVGPGAGESPGTPPFRVIGELVGHTERVSGFTFSHHPGQYNLCATSSDDGTVKIWDVETKTVVTEHALHQHTISTLHWSPRVKDLIVSGDEKGVVFCYWFNRNDSQHLFIEPRTIFCLTCSPHHEDLVAIGYKDGIVVIIDISKKGEVIHRLRGHDDEIHSIAWCPLPGEDCLSINQEETSEEAEITNGNAVAQAPVTKGCYLATGSKDQTIRIWSCSRGRGVMILKLPFLKRRGGGIDPTVKERLWLTLHWPSNQPTQLVSSCFGGELLQWDLTQSWRRKYTLFSASSEGQNHSRIVFNLCPLQTEDDKQLLLSTSMDRDVKCWDIATLECSWTLPSLGGFAYSLAFSSVDIGSLAIGVGDGMIRVWNTLSIKNNYDVKNFWQGVKSKVTALCWHPTKEGCLAFGTDDGKVGLYDTYSNKPPQISSTYHKKTVYTLAWGPPVPPMSLGGEGDRPSLALYSCGGEGIVLQHNPWKLSGEAFDINKLIRDTNSIKYKLPVHTEISWKADGKIMALGNEDGSIEIFQIPNLKLICTIQQHHKLVNTISWHHEHGSQPELSYLMASGSNNAVIYVHNLKTVIESSPESPVTITEPYRTLSGHTAKITSVAWSPHHDGRLVSASYDGTAQVWDALREEPLCNFRGHRGRLLCVAWSPLDPDCIYSGADDFCVHKWLTSMQDHSRPPQGKKSIELEKKRLSQPKA
binds	binds	His-G5(1–739) Y15A (domain or fragment) MGQEPRTLPPSPNWACARCSDAVPGGLFGFAARTSVFLVRVGPGAGESPGTPPFRVIGELVGHTERVSGFTFSHHPGQYNLCATSSDDGTVKIWDVETKTVVTEHALHQHTISTLHWSPRVKDLIVSGDEKGVVFCYWFNRNDSQHLFIEPRTIFCLTCSPHHEDLVAIGYKDGIVVIIDISKKGEVIHRLRGHDDEIHSIAWCPLPGEDCLSINQEETSEEAEITNGNAVAQAPVTKGCYLATGSKDQTIRIWSCSRGRGVMILKLPFLKRRGGGIDPTVKERLWLTLHWPSNQPTQLVSSCFGGELLQWDLTQSWRRKYTLFSASSEGQNHSRIVFNLCPLQTEDDKQLLLSTSMDRDVKCWDIATLECSWTLPSLGGFAYSLAFSSVDIGSLAIGVGDGMIRVWNTLSIKNNYDVKNFWQGVKSKVTALCWHPTKEGCLAFGTDDGKVGLYDTYSNKPPQISSTYHKKTVYTLAWGPPVPPMSLGGEGDRPSLALYSCGGEGIVLQHNPWKLSGEAFDINKLIRDTNSIKYKLPVHTEISWKADGKIMALGNEDGSIEIFQIPNLKLICTIQQHHKLVNTISWHHEHGSQPELSYLMASGSNNAVIYVHNLKTVIESSPESPVTITEPYRTLSGHTAKITSVAWSPHHDGRLVSASYDGTAQVWDALREEPLCNFRGHRGRLLCVAWSPLDPDCIYSGADDFCVHKWLTSMQDHSRPPQGKKSIELEKKRLSQPKA
